This is an account of results in PMC4280530, “Uniform Orientation of Biotinylated Nanobody as an Affinity Binder for Detection of Bacillus thuringiensis (Bt) Cry1Ac Toxin” (Toxins, 2014).

The assay addresses T1, Cry1F toxin (Bacillus thuringiensis, strain not …, UniProt Q03746).
T1 construct: Cry1F toxin of Bacillus thuringiensis, member of the Cry1 family; Commercial toxin
In words: ELISA. Particulars: both partners purified.

T1 sequence (Q03746 whole entry): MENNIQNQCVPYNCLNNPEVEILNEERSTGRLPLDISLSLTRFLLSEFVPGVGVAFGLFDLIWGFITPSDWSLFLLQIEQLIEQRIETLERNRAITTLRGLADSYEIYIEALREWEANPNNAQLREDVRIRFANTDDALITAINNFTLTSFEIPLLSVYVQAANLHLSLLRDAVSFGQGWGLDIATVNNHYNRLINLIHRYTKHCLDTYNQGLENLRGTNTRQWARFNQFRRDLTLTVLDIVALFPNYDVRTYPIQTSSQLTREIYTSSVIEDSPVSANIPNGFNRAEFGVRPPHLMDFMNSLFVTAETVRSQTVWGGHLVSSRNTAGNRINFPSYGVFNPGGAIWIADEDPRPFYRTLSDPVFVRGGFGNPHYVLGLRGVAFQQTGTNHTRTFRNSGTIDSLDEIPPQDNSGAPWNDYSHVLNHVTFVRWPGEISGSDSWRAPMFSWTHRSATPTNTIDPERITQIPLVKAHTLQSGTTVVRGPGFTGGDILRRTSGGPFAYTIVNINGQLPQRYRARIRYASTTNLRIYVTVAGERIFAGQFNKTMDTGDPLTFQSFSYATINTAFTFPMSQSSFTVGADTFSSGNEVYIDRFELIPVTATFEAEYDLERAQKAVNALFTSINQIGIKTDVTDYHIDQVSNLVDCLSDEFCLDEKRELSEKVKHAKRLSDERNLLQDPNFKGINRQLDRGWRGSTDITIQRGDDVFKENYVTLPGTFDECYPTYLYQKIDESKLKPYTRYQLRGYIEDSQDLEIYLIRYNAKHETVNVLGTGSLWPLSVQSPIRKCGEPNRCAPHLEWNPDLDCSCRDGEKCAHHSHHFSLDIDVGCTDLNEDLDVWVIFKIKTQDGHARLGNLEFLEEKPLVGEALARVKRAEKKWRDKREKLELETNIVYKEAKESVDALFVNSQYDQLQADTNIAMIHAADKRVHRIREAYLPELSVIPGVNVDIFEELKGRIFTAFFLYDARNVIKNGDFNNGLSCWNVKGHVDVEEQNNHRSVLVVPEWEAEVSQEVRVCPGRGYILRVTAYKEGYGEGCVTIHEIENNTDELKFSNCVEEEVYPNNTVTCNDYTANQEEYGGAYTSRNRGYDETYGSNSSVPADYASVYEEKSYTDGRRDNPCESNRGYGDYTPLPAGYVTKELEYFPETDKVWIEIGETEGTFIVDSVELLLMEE

B1: anti-Cry1Ac nanobody Nb61 (VHH)
VHH: QVQLQESGGGSVQAGGSLRLSCEASENTYNSVYMAWFRQAPEKEREGVAVLSTGGGRTYYTDSVKGRFTISRDNAKNMVYLQMNSLKPDDTAMYYCAATYTGDSYGPSLYYLTPGRYEYWGQGTQVTVSS
notes: VHH from an immunised dromedary, in pMECS; HA tag is known from the detection with anti-HA tag antibody; also called Cry1Ac Nb61; source: E. coli WK6, periplasm, purified (Ni-NTA / His-Select IMAC); periplasmic extract in PE-ELISA
In the case of B1, the binding result was “no binding (tested: 10 μg·mL^−1)”.

B2: anti-Cry1Ac nanobody Nb44 (VHH)
VHH: QVQLQESGGGSVQAGGSLRLSCATSGLTYSARITWFRQAPEKEREGVATFSTGSGSTGYADSVKGRFTISQDNAKNTLYLQMNNLKPEDTAMYYCAADTSTSWRDIVLVARYKYWGQGTQVTVSS
notes: VHH from an immunised dromedary, in pMECS; HA tag is known from the detection with anti-HA tag antibody; also called Cry1Ac Nb44; source: E. coli WK6, periplasm, purified (Ni-NTA / His-Select IMAC); periplasmic extract in PE-ELISA
As to B2, the binding result was “no binding (tested: 10 μg·mL^−1)”.
